Experimental data from publication PMC4206950 (Chemical science (Royal Society of Chemistry : 2010), 2014).

B1: SABP2 (Nicotiana tabacum) (protein)
chain: MKEGKHFVLVHGACHGGWSWYKLKPLLEAAGHKVTALDLAASGTDLRKIEELRTLYDYTLPLMELMESLSADEKVILVGHSLGGMNLGLAMEKYPQKIYAAVFLAAFMPDSVHNSSFVLEQYNERTPAENWLDTQFLPYGSPEEPLTSMFFGPKFLAHKLYQLCSPEDLALASSLVRPSSLFMEDLSKAKYFTDERFGSVKRVYIVCTEDKGIPEEFQRWQIDNIGVTEAIEIKGADHMAMLCEPQKLCASLLEIAHKYN
B2: PFE (Pseudomonas fluorescens) (protein)
chain: STFVAKDGTQIYFKDWGSGKPVLFSHGWLLDADMWEYQMEYLSSRGYRTIAFDRRGFGRSDQPWTGNDYDTFADDIAQLIEHLDLKEVTLVGFSMGGGDVARYIARHGSARVAGLVLLGAVTPLFGQKPDYPQGVPLDVFARFKTELLKDRAQFISDFNAPFYGINKGQVVSQGVQTQTLQIALLASLKATVDCVTAFAETDFRPDMAKIDVPTLVIHGDGDQIVPFETTGKVAAELIKGAELKVYKDAPHGFAVTHAQQLNEDLLAFLKR

Assays:
Assay in all cases: purified protein
[1] = tested on: CC(=O)Oc1ccc([N+](=O)[O-])cc1; assay type: biochemical, Hevea brasiliensis; conditions: BES pH 7.2, 25 °C, about 7 vol% acetonitrile
CC(=O)Oc1ccccc1 = conditions: […] BES pH 7.2, 5% MeCN
CC(C)(O)C#N = assay type: biochemical, Hevea brasiliensis; conditions: pH 5 citrate buffer
N#CC(O)c1ccccc1 = assay type: biochemical, Hevea brasiliensis; conditions: pH 5.0 citrate buffer, 25 °C, racemic substrate
purified protein [2] = substrate: CC(=O)Oc1ccc([N+](=O)[O-])cc1; assay type: biochemical, Nicotiana tabacum; conditions: BES pH 7.2, 25 °C, about 7 vol% acetonitrile
purified protein [3] = substrate: CC(=O)Oc1ccc([N+](=O)[O-])cc1; assay type: biochemical, Pseudomonas fluorescens; conditions: BES pH 7.2, 25 °C, about 7 vol% acetonitrile

Molecule	Km [1] [mM]	kcat [1] [s⁻¹]	kcat/Km [1] [M⁻¹ s⁻¹]	further results
HbHNL (Hevea brasiliensis; T11G)	0.20 ± 0.04	0.0015 ± 8.33e-05	7.5	–
HbHNL (Hevea brasiliensis; E79H)	0.19 ± 0.04	0.00133 ± 6.67e-05	6.83	–
HbHNL (Hevea brasiliensis; E79H/K236G/T11G)	0.16 ± 0.02	0.027 ± 0.000833	168	Km (CC(=O)Oc1ccccc1): 2.8 ± 0.4 mM; kcat (CC(=O)Oc1ccccc1): 0.02 ± 0.00167 s⁻¹; kcat/Km (CC(=O)Oc1ccccc1): 6.83 M⁻¹ s⁻¹; Km (CC(C)(O)C#N): 6.5 ± 1 mM; kcat (CC(C)(O)C#N): 0.0967 ± 0.00833 s⁻¹; kcat/Km (CC(C)(O)C#N): 14.8 M⁻¹ s⁻¹; Km (N#CC(O)c1ccccc1): 3.2 ± 0.9 mM; kcat (N#CC(O)c1ccccc1): 0.135 ± 0.0167 s⁻¹; kcat/Km (N#CC(O)c1ccccc1): 41.7 M⁻¹ s⁻¹
HbHNL (Hevea brasiliensis; K236G/T11G)	0.15 ± 0.02	0.00217 ± 6.67e-05	14.3	–
HbHNL (Hevea brasiliensis; E79H/T11G)	0.14 ± 0.02	0.00967 ± 0.000333	69.3	–
HbHNL (Hevea brasiliensis; K236M)	0.58 ± 0.05	0.0123 ± 0.000333	21.2	–
B1	–	–	–	Km (purified protein [2]): 1.4 ± 0.1 mM
B2	–	–	–	Km (purified protein [3]): 0.45 mM
